From patent publication US20230116446A1

Target: CD122/CD132 complex (UniProt P14784)
Test: cell-based or functional assay

Chain of CD122/CD132 complex (P14784 27-551 limits assumed, chain 1 of 2): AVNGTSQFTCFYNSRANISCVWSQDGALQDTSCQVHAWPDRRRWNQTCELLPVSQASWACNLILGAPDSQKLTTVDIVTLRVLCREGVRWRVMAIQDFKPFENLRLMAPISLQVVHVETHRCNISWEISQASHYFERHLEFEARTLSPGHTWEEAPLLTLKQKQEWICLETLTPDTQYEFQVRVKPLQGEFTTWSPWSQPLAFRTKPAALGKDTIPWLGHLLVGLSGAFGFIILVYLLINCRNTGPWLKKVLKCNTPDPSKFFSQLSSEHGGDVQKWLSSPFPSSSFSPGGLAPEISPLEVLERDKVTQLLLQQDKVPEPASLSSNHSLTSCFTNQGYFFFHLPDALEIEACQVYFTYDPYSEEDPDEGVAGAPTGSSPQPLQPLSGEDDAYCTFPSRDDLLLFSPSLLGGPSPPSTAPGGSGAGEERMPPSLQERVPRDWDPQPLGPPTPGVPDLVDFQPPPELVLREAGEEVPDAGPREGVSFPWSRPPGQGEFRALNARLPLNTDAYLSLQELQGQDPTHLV
Chain of CD122/CD132 complex (P31785 23-369 limits assumed, chain 2 of 2, further chain): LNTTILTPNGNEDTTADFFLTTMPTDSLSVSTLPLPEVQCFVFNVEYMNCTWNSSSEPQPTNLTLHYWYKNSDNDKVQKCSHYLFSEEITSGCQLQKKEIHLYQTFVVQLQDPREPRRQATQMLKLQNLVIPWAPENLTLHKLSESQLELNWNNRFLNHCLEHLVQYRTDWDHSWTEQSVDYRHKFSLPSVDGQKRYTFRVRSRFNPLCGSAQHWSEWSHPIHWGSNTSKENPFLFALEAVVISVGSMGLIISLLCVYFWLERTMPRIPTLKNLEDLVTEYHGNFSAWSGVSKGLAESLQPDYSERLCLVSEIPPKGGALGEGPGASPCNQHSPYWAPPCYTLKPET

Substance	EC50, IL2 reporter assay (HEK 293 reporter cells, SEAP, absorbance at 650 nM)
Recombinant IL-15 (PeproTech 200-15) (from UniProt P40933 49-162) (ligand)	21 pM
Fc-IL15×Fc-IL15Rα sushi domain fusion protein (Fc fusion)	66 pM
